The record followed here is patent US6441158, “Oligomers that bind to ku protein” (Medical College of Georgia Research Institute, Inc.).

Data set [1] addresses DNA-PK (Ku protein + DNA-PKcs) (Homo sapiens, UniProt P12956;P13010;P78527 P12956:2-609,P13010:2-732,P78527:1-4128). The data set is described as follows: inhibition; DNA-PK kinase inhibition class A at 16-32 nM RNA. The note with it: tags: none, both purified from HeLa cell nuclear extracts.
In data set [2] the target is T1, Ku protein (Ku70/Ku80 heterodimer) (Homo sapiens, UniProt P12956;P13010 P12956:2-609,P13010:2-732). The data set is described as follows: EMSA; 5 mM MgCl2. The note with it: tags: none, purified from HeLa cell nuclear extracts. (Mobility shift assays separate free from complexed probe on a gel.)
T1 sequence (P12956 2-609, chain 1 of 2): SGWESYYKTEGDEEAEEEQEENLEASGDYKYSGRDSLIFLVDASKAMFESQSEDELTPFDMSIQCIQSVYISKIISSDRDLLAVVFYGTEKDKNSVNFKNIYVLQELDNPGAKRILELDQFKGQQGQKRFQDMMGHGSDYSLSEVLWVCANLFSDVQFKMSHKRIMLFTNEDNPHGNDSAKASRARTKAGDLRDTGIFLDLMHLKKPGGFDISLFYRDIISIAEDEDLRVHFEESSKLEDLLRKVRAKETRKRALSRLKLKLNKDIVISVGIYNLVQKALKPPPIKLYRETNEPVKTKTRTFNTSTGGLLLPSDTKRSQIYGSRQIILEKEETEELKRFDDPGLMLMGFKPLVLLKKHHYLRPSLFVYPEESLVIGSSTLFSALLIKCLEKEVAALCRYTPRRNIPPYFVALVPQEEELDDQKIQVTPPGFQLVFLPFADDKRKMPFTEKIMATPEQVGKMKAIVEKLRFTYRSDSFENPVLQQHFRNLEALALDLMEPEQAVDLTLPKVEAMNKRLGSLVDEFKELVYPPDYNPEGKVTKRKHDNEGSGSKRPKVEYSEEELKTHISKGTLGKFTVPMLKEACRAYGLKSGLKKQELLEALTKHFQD
T1 sequence (P13010 2-732, chain 2 of 2): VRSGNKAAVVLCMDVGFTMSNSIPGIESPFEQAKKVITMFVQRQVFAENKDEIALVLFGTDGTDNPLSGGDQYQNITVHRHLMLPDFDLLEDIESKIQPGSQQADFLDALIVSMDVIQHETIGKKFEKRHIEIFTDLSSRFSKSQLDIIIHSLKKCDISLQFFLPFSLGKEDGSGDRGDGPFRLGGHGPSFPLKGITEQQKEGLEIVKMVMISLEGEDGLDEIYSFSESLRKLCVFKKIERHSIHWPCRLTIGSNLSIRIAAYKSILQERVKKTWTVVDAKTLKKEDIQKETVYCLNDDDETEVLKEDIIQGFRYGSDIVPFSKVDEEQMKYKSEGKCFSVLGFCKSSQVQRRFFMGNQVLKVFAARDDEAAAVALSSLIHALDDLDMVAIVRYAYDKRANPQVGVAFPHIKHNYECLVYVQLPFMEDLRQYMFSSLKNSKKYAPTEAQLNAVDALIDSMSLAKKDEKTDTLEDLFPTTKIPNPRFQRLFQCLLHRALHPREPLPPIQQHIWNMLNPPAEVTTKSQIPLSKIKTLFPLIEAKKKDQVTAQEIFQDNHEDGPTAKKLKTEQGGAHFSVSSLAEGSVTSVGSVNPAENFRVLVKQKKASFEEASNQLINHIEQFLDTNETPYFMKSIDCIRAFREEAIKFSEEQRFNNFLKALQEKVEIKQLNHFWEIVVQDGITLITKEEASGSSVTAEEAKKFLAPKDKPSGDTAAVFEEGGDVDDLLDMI
Data set [3] concerns the target T1, Ku protein (Ku70/Ku80 heterodimer). The data set is described as follows: EMSA. The note with it: tags: none, purified from HeLa cell nuclear extracts.
Data set [4] shares this target. The data set is described as follows: EMSA; binding comparable to round 6 RNA (about 0.3 nM). The note with it: tags: none, purified from HeLa cell nuclear extracts; label: 5'-32P.
Excerpt: Binding curves were obtained with EMSA followed by a nonlinear least squares fit of the data. […] A twenty-one base pair double-stranded DNA was end-labeled with T4 polynucleotide kinase.
The target is the same in data set [5]. The data set is described as follows: EMSA; printed as SCI. The note with it: tags: none, purified from HeLa cell nuclear extracts.

A value given as a limit tells only on which side of the number the result lay.

B1: #2 (ssRNA)
RNA: GGGAGGAUAUUUUCUCAGACCGUAAGCCUAUGCACGGAGCUUUCCCAGCUACAGAUGAAACCAGCUUGCAGCAUCGUGAACUAGGAUC
Regarding B1, in data set [1], the activity was ≥ 85 % inhibition. The same molecule yielded a Kd in data set [2] of 0.3 nM.

B2: #1-17 (ssRNA)
RNA: GGGAGGAUAUUUUCUCAGACCGUAAUCCUUAUUUUAUGGCUUUCCCACGCACACAAGCGUCUGCGUUGCAGCAUCGUGAACUAGGAUC
B2 returned a dissociation constant Kd in data set [3] of 3.2 nM.

B3: SC3 (ssRNA)
RNA: GGGAGGAUAUUUUCUCAGACCGUAACAUUACCACAGUUCUAGCAUCCCGCAAUGGUAAGUCCGCAUUGCAGCAUCGUGAACUAGGAUC
Consider B3, for which, in data set [3], the Kd was found to be 0.8 nM.

B4: #85 (ssRNA)
RNA: GGGAGGAUAUUUUCUCAGACCGUAACAAGUAUCACGCACUUUCCCAUUCACUGUUAGAGACUGAUUGCAGCAUCGUGAACUAGGAUC
Take B4: binding in data set [3] was put at a Kd of 0.7 nM.

B5: SC11 (ssRNA)
RNA: GGGAGGAUAUUUUCUCAGACCGUAACUUAGUUUCGAUCGAAGCUCAUUGGCCCAGCGUGGAUAACUUGCAGCAUCGUGAACUAGGAUC
On to B5, for which, in data set [3], the Kd is > 10 nM.

B6: SC6 (ssRNA)
RNA: GGGAGGAUAUUUUCUCAGACCGUAAGACUCACGAUGGACCAUACGCCUUCCCACUGGUCUUGUUAUUGCAGCAUCGUGAACUAGGAUC
Consider B6, for which, in data set [3], the affinity, expressed as Kd, was 2 nM.

B7: 21 bp double-stranded DNA (dsDNA)
DNA 1: CTCAGGCGTTGACGACAACCC
DNA 2: GGGTTGTCGTCAACGCCTGAG
Regarding B7, the binding result in data set [4] is “binds”.

B8: SC2 (ssRNA)
RNA: GGGAGGAUAUUUUCUCAGACCGUAACACGCUCUACAACAGAUUGCGAAUUAACUUACGCUUCAUAUUGCAGCAUCGUGAACUAGGAUC
In turn, B8 had a Kd in data set [3] of 0.8 nM. The activity in data set [1] is ≥ 85 % inhibition.

B9: SC8 (ssRNA)
RNA: GGGAGGAUAUUUUCUCAGACCGUAAGUCCUUCACUAAUGCUUACCAGACACACUAAGAACGUCACUUGCAGCAUCGUGAACUAGGAUC
As to B9, in data set [3], the Kd was 0.6 nM. Also, the activity in data set [1] is ≥ 85 % inhibition.

B10: SC13 (ssRNA)
RNA: GGGAGGAUAUUUUCUCAGACCGUAAACCUUUUUAGACGAACCUCAAAGUACAUUUAGUUGAAAACUUGCAGCAUCGUGAACUAGGAUC
In the case of B10, in data set [3], the Kd was 0.8 nM.

B11: SC9 (ssRNA)
RNA: GGGAGGAUAUUUUCUCAGACCGUAAUGCCUUUAGCUGCGACAAUGAACAGCAUGACCUCACUACUUGCAGCAUCGUGAACUAGGAUC
In data set [3], B11 yielded a Kd of 0.6 nM.

B12: #84 (ssRNA)
RNA: GGGAGGAUAUUUUCUCAGACCGUAAAUCCGCGUACCGGGCUCAAAUGUCACUAUAGUAGAAAGCAUUGCAGCAUCGUGAACUAGGAUC
In data set [3], B12 came in with a Kd of 1.8 nM. Compared with the last molecule, the Kd is about 3-fold higher.

B13: SC5 (ssRNA)
RNA: GGGAGGAUAUUUUCUCAGACCGUAACUUGAACAUGAUAGGCUUACCCAUAGACAGAUUGACCCUUUUGCAGCAUCGUGAACUAGGAUC
In data set [3], B13 showed a dissociation constant (Kd) of 2 nM. In data set [1], the activity is ≥ 85 % inhibition.

B14: #7-3 (ssRNA)
RNA: GGGAGGAUAUUUUCUCAGACCGUAAAGGUCGGCAUACAGAGUUCCGAAUGCGCGUAACUUCGACUUUGCAGCAUCGUGAACUAGGAUC
In the case of B14, the Kd in data set [3] came out at 1.8 nM. Moreover, the activity in data set [1] is ≥ 85 % inhibition.

B15: SC12 (ssRNA)
RNA: GGGAGGAUAUUUUCUCAGACCGUAACUCGCAACAUGACUUCGAAAGUUUAAUCGUUCUUGUCAAUUGCAGCAUCGUGAACUAGGAUC
In data set [3], B15 returned a Kd of 0.5 nM.

B16: #52 (ssRNA)
RNA: GGGAGGAUAUUUUCUCAGACCGUAACUGAUCGUUCAAUGACUAUUCUUUACCUUGAGUAACCGAUUGCAGCAUCGUGAACUAGGAUC
B16: binding in data set [3] was characterised by a dissociation constant (Kd) of 3.2 nM. This Kd is about 6.4-fold higher than that of the molecule before.

B17: #42 (ssRNA)
RNA: GGGAGGAUAUUUUCUCAGACCGUAACAUCCUGGUACUCACUUCGACAUCGUACGUUCAAUCAUACUUGCAGCAUCGUGAACUAGGAUC
On to B17, for which the Kd in data set [3] stood at 4.5 nM.

B18: SC4 (ssRNA)
RNA: GGGAGGAUAUUUUCUCAGACCGUAACCUAGUCUAAUCGAGGCUUUCCCAGUGACAAUGACCCACUUGCAGCAUCGUGAACUAGGAUC
In the case of B18, the Kd in data set [3] is 1.7 nM.

B19: SC1 (ssRNA)
RNA: GGGAGGAUAUUUUCUCAGACCGUAAUUGUUCAACCUUGUCUAACAUGAUACCGAUACGGACUACAUUGCAGCAUCGUGAACUAGGAUC
B19: in data set [5], the Kd amounted to 1.2 nM. In other words, the single-digit nanomolar range.

B20: #1-2 (ssRNA)
RNA: GGGAGGAUAUUUUCUCAGACCGUAACAACACCUUGCUUUCCCAAUACCCUGAAAUACAGUCGGAUUUGCAGCAUCGUGAACUAGGAUC
As to B20, binding in data set [3] was put at a Kd of 1.5 nM. In addition, the activity in data set [1] is ≥ 85 % inhibition.

As a reminder, the Kd is a measure of binding affinity in units of concentration. High values mean lower affinity, low ones higher affinity.
